Values joined by “and” are separate entries in the source; they are usually repeats but may differ in a detail not shown here. Equal entries are not always repeated.
What was measured:
[1] = molecular target: C-terminal ZR-fused ferritin (HF-ZR) cage, 15 residue linker (human); assay: negative-stain TEM
[2] = molecular target: ZE-fused ferritin, N-terminal fusion (ZE-HF) cage (human); assay: native gel or EMSA
[3] = molecular target: ZE-fused ferritin, N-terminal fusion (ZE-HF) cage (human); assay: TEM
[4] = molecular target: ZE-mi3 cage (His tag and ZE fused to the N-terminus of the designed protein cage mi3); assay: TEM
[5] = molecular target: ZE-mi3 cage (His tag and ZE fused to the N-terminus of the designed protein cage mi3); assay: native gel or EMSA
[6] = molecular target: ZE-fused ferritin, C-terminal fusion (HF-ZE) cage (human); assay: TEM + native gel or EMSA

ZE-GFP (ZE-fused GFP) (designed binder)
stoichiometry N (GFPs observed per cage) [1]: 1 and 3

GFP-ZR (ZR fusion to the GFP C-terminus) (designed binder)
stoichiometry N (GFPs per ferritin cage) [2]: 20 to 24

C-terminal ZR-fused ferritin (HF-ZR) cage, 15 residue linker (designed binder)
stoichiometry N (HF-ZR cages per ZE-HF cage) [3]: 4 and 6
stoichiometry N (HF-ZR cages per mi3 cage) [4]: 12
stoichiometry N (HF-ZR cages per ZE-mi3 cage) [5]: 12
stoichiometry N (HF-ZR cages per HF-ZE cage) [6]: 1 and 3

Reference: PMC9891371
